Measured values published in the supplement of paper PMC10567573.

B1: BTBD1 (parent)
chain: YGSIHGPTDYQVNIQIIEYEKKQT

Variants of: B1
Test: protein stability index of a GFP-peptide fusion (GPS, HEK-293T) (PSI 1-6); higher = more stable
Settings: c terminus: a fixed tail appended
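Also: lentivirally expressed fusions sorted by FACS into six bins by GFP to DsRed ratio, PSI derived from sequencing read proportions per bin multiplied by bin number.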

Protein stability index: each site, then its substitutions
Q23: H 2.31 | E 2.72 | M 2.18 | T 2.13 | S 2.43 | C 1.8 | N 2.88 | I 1.81 | P 2.28 | F 1.61 | A 2.33 | V 2.12 | W 2.56 | K 2.74 | Y 1.93
I16: G 3.31 | L 2.74 | E 3.81 | D 3.61 | K 3.97 | N 3.55 | Q 3.9 | M 3.32 | P 2.9 | S 3.58 | W 2.48 | F 2.51 | V 3.15 | Y 2.71
K22: H 2.03 | Q 2.75 | V 2.54 | D 2.77 | L 2.03 | N 2.5 | M 2.59 | A 2.18 | P 1.72 | E 2.96 | W 2.5 | F 1.39 | I 1.56 | Y 2.47
G2: I 1.7 | F 2.48 | S 2.45 | M 2.83 | W 2.5 | R 2.5 | C 2.56 | H 2.36 | D 3.7 | L 2.08 | K 3.06 | P 2.81 | Q 2.59 | T 1.9 | E 3.59
Y19: R 3.01 | C 2.69 | M 3.03 | F 2.14 | E 4.05 | Q 3.29 | V 2.44 | I 2.39 | S 3.56 | W 2.5 | H 3.23 | K 3.38
N13: E 2.79 | A 2.4 | H 2.48 | W 1.85 | V 1.87 | K 2.57 | S 2.15 | I 1.83 | Q 2.69 | C 1.7 | Y 2.19 | T 1.82 | M 2.74
Y10: T 4.1 | I 2.44 | S 4.16 | N 4.48 | A 4.06 | Q 4.33 | D 4.3 | C 2.96 | H 3.77 | F 2.43 | V 2.77 | G 3.79 | M 3.63 | K 4.24
E20: W 2.15 | C 1.66 | T 2.25 | Q 2.2 | K 2.35 | R 2.08 | N 2.43 | F 1.84 | D 2.59 | A 2.39 | I 2.22 | Y 1.88 | G 2.21 | L 2.25 | H 2.54 | M 2.33 | S 2 | P 1.72
Y1: A 3.35 | R 3.44 | Q 3.8 | H 3.45 | S 3.79 | T 3.83 | F 2.52 | M 3.73 | G 3.66 | N 3.32 | D 3.93 | V 3.84 | C 3.4 | W 2.67
Q11: C 1.54 | T 1.55 | K 2.15 | L 2.83 | M 1.93 | D 3.52 | E 2.66 | I 1.68 | N 2.39 | G 2.57 | Y 2.24 | W 2.67 | A 2.26 | V 1.42
T24: P 2.3 | E 3.08 | M 2.36 | F 1.84 | W 2.23 | H 2.9 | S 2.98 | Q 3.18 | Y 2.21 | V 2.43 | A 3.1 | I 2.08 | D 3.18
T8: L 1.91 | M 1.74 | R 2.57 | A 2.71 | I 2.06 | K 2.16 | G 2.44 | P 2.97 | F 2.17 | Q 3.08 | N 2.94 | H 2.38 | V 2.06 | S 3.11 | E 2.88
K21: Y 1.92 | R 2.25 | F 3.75 | E 2.7 | D 2.46 | T 2.24 | V 1.59 | W 2.8 | H 1.83 | A 1.82
I14: M 3.37 | F 2.92 | H 3.48 | L 3.36 | V 3.16 | K 3.75 | P 3.77 | C 3.3 | W 2.76 | T 3.58 | R 3.53 | Y 3.35 | Q 3.74
V12: I 2.72 | F 2.71 | H 4.09 | K 3.44 | N 4.15 | Q 4.19 | P 2.95 | W 2.32 | D 4.04 | M 2.93 | L 3.28 | S 3.98 | A 3.6 | C 2.77 | T 3.72
G6: E 3.54 | L 2.6 | Y 2.44 | F 1.63 | D 3.61 | W 2.71 | V 2.21 | A 2.96 | I 2.17 | R 2.88 | M 2.85 | C 2.81 | P 3.18 | Q 3.26 | S 3.15 | T 3.19
I17: G 3.31 | N 3.33 | M 2.81 | K 3.53 | P 3.44 | D 3.63 | C 2.62 | V 2.68 | L 2.68 | E 3.69 | F 2.46 | Y 2.77 | A 3.32 | H 3.22
D9: H 1.63 | S 1.65 | P 2.44 | K 1.82 | E 1.95 | L 3.37 | V 2.24 | A 3.12
E18: W 3.17 | L 3.33 | A 1.71 | Q 2.1 | M 2.44 | H 1.84 | F 3.79 | C 1.86 | I 3.84 | G 2.24 | R 1.85
H5: D 3.09 | K 3.72 | C 2.41 | M 2.73 | P 3.29 | A 3.31 | Q 2.78 | R 2.98 | W 2.09 | N 2.13 | G 3.06 | Y 1.98 | F 1.99 | T 2.52 | V 2.04 | I 2.67 | E 3.71 | S 3.26
S3: H 3.09 | M 2.87 | N 1.6 | V 2.57 | A 2.85 | I 2.24 | T 3.08 | G 2.88 | R 2.88 | K 3.17 | Y 2.15 | P 3.06 | D 3.13
P7: Q 2.65 | D 3.29 | C 2 | V 2.63 | R 1.75 | W 4.06 | M 2.31 | L 2.21 | K 2.49 | G 2.87 | H 2.65 | A 2.6 | Y 1.75
I4: M 2.41 | S 2.45 | E 3.45 | V 2.63 | G 2.16 | T 2.81 | A 2.95 | F 2.21 | P 3.1 | W 2.5 | Y 2.94 | C 2.32 | D 4.08 | R 1.93 | N 2.93 | Q 3.06
Q15: T 1.81 | P 3.08 | S 2.57 | Y 1.37 | A 1.96 | K 2.56 | N 2.62 | R 2.67 | H 2.11 | W 4.17 | M 1.96 | L 2.09 | D 3.06 | F 2.4 | E 2.66 | I 2.74
